The text below walks through data of the RNAGym collection of RNA variant scans (doi:10.1093/molbev/msab373).

First the molecules themselves.
B1: Azoarcus group I ribozyme (parent)
chain: GUGCCUUGCGCCGGGAAACCACGCAAGGGAUGGUGUCAAAUUCGGCGAAACCUAAGCGCCCGCCCGGGCGUAUGGCAACGCCGAGCCAAGCUUCGGCGCCUGCGCCGAUGAAGGUGUAGAGACUAGACGGCACCCACCUAAGGCAAACGCUAUGGUGAAGGCAUAGUCCAGGGAGUGGCGAAAGUCACACAAACCGG

The data set covers variants of B1. In words: reverse-splicing fitness (ratio to wild type); higher = more active; in vitro selection; Mg2+ level not given. Put shortly: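 An in vitro group I ribozyme library with randomized positions was T7-transcribed and gel-purified. In triplicate, 10 pmol RNA in EPPS pH 7.5 was reacted with 50 pmoles of a 30-nt RNA substrate for 1 h at 37 °C across several added MgCl2 levels (1–48 mM), then stopped with EDTA. Products were reverse transcribed from a substrate-complementary primer, PCR-amplified and sequenced (HiSeq 4000). Fitness is a variant's read proportion after selection over that before, normalised to wild type.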
In the case of A111U C150U C169A, the reverse-splicing fitness was 0.02.

Consider C82G A111G A145C C150G U176C, for which the reverse-splicing fitness came out at 0.0294.

Regarding C82U A111C A120G A145U C150U C169G U176G, the reverse-splicing fitness came to 0.00453.

For C82U A111C A120U C150G C169U U176C, the reverse-splicing fitness turned out to be 0.00516.

Turning to A111U A120C A145U C150U C169G U176C, the reverse-splicing fitness was 0.0102.

For C82U A111G A120U C169G, the reverse-splicing fitness is 0.00416.

As to A120U A145C U176C, the reverse-splicing fitness is 0.452.

In the case of A111C A145G C150U U176A, the reverse-splicing fitness was 0.313.

With A111U A120U A145G C150U C169G, the reverse-splicing fitness turned out to be 0.0377.

For the variant C82G A111G A120G A145G C150U C169G U176A, the reverse-splicing fitness stood at 0.0139.

For the variant C82U A111U A120G C150G C169A U176G, the reverse-splicing fitness is 0.00664.

For the variant C82A A111G A120G A145C C150G U176G, the reverse-splicing fitness was determined as 0.00287.

Regarding C82U A120C A145U C150U C169G U176C, the reverse-splicing fitness worked out at 0.00724.

Take C82A A111U A120G A145U C150G: the reverse-splicing fitness is 0.00799.

Consider A111U A120U C150U C169U U176C, for which the reverse-splicing fitness was found to be 0.0116.

C82U A111G C169G U176G: the reverse-splicing fitness is 0.00463.

For C82A A111U A120C A145G, the reverse-splicing fitness is 0.0269.

On to C82U A145C C169U U176A, for which the reverse-splicing fitness was 0.0118.

For C82G A111G A120C C150U C169G U176C, the reverse-splicing fitness was 0.0206.

For the variant C82G A111U A120G C150U C169U, the reverse-splicing fitness amounted to 0.0101.

For the variant C82U A120U A145U C150G C169G U176A, the reverse-splicing fitness was 0.00198.

For C82G A120U A145C C150U C169U, the reverse-splicing fitness was determined as 0.00351.

C82G A111C A120G A145C C150G C169U U176C: the reverse-splicing fitness is 0.0124.

As to A111C A120U A145C C150U C169G U176C, the reverse-splicing fitness amounted to 0.00324.

For the variant C82A A111G A120C C150U C169U U176A, the reverse-splicing fitness was determined as 0.014.

In the case of C82U A111G A120G A145C C150U C169G, the reverse-splicing fitness was found to be 0.00844.

On to A111U A120G A145C C150G C169A U176A, for which the reverse-splicing fitness stood at 0.00822.

In the case of C82G A111G A120U C150U U176G, the reverse-splicing fitness worked out at 0.00497.

With C82A A111C A120U A145G C150G C169A U176G, the reverse-splicing fitness stood at 0.00541.

Turning to C82U A120C C150G C169U, the reverse-splicing fitness is 0.00921.

Take A111U A120C A145U C169U U176G: the reverse-splicing fitness worked out at 0.00586.

As to A111U A120U A145U C150A C169G U176C, the reverse-splicing fitness is 0.00325.

Take A111C C150A C169G U176A: the reverse-splicing fitness is 0.016.

Turning to C82A A111U A120G C150G C169A, the reverse-splicing fitness came out at 0.00926.

Turning to A111U A120C A145C C150U C169U U176A, the reverse-splicing fitness was 0.0199.

In the case of C82U A111G C150G C169U U176A, the reverse-splicing fitness turned out to be 0.00707.

In the case of C82U A120G A145G C150A C169A U176A, the reverse-splicing fitness is 0.018.

On to A111C A120C A145C C150A C169A U176G, for which the reverse-splicing fitness came out at 0.00655.

As to C82U A120U C150U, the reverse-splicing fitness was 0.0886.

On to C82U A111U A145G C169A U176C, for which the reverse-splicing fitness is 0.0257.

As to A111G A145U C150A C169U, the reverse-splicing fitness amounted to 0.0232.

On to A111G A120U C150A C169G U176G, for which the reverse-splicing fitness is 0.00211.

In the case of C82G A111G C150G C169U U176G, the reverse-splicing fitness amounted to 0.008.

As to C82G A111C A120G A145G U176A, the reverse-splicing fitness came to 0.017.

In the case of C82G A111C A120C A145C C150U C169G U176G, the reverse-splicing fitness amounted to 0.00745.

Take C82A A111C A145G C169A: the reverse-splicing fitness is 0.0103.

For C82A A111U A120C A145G C150U C169A U176G, the reverse-splicing fitness was determined as 0.00943.

For C82G A120G A145U C150G U176G, the reverse-splicing fitness was 0.00404.

In the case of A120C A145U C169U, the reverse-splicing fitness was 0.441.

On to C82U A111G A145G C150U C169G U176C, for which the reverse-splicing fitness turned out to be 0.0174.

With C82A A111C A120G A145U C150A C169G, the reverse-splicing fitness stood at 0.00777.

For C82G A111G A120C A145G C150U C169G U176G, the reverse-splicing fitness was 0.00597.

As to C82A A111G A120U C169U, the reverse-splicing fitness was determined as 0.00452.

For C82A A111U A120U A145G C169A, the reverse-splicing fitness stood at 0.0037.

For A120U C150G C169G U176C, the reverse-splicing fitness worked out at 0.0024.

On to C82G A111U A145C C150A U176G, for which the reverse-splicing fitness is 0.00844.

Take C82U A111U A145U C169A: the reverse-splicing fitness worked out at 0.00706.

Consider C82A A111G A120U A145U C150U C169G U176G, for which the reverse-splicing fitness was 0.00208.

Regarding C82G A111U A120G A145G C150A C169U U176C, the reverse-splicing fitness stood at 0.0177.

C82G A120C A145G C150G C169G U176G: the reverse-splicing fitness was 0.00667.

As for A145G C169U U176G, the reverse-splicing fitness was determined as 0.0104.

As to A111U A120U A145G U176G, the reverse-splicing fitness was 0.0546.

Regarding C82A C150G C169U U176A, the reverse-splicing fitness was found to be 0.00724.

On to C82U A111U A120C C150A U176C, for which the reverse-splicing fitness was 0.0189.

C82A A120U A145G C150A C169U: the reverse-splicing fitness was determined as 0.00423.

As for C82A A120U A145G C150G C169G U176A, the reverse-splicing fitness was found to be 0.00824.

Consider C82U A120C A145C C150U C169G U176A, for which the reverse-splicing fitness was 0.0142.

For C82U A111U A120G C150U U176C, the reverse-splicing fitness is 0.0136.

As for C82G A111C C150U C169A U176C, the reverse-splicing fitness was 0.0143.

Take A111C A120C A145G C150U: the reverse-splicing fitness was 0.462.

On to C82A A111G A145C C150G, for which the reverse-splicing fitness was 0.0325.

For A111U A120G A145C C150U C169U U176A, the reverse-splicing fitness was 0.0278.

Regarding A111C A145G C150A C169G U176G, the reverse-splicing fitness was 0.00728.

C82U A111C A120U A145G C150U C169U U176C: the reverse-splicing fitness worked out at 0.00415.

In the case of C82A A120U A145C C150A U176G, the reverse-splicing fitness was 0.00246.

With A111C A145G, the reverse-splicing fitness stood at 0.83.

Regarding C82A A120U A145C C150U C169U U176A, the reverse-splicing fitness turned out to be 0.00245.

Turning to A111G A145C C150A U176G, the reverse-splicing fitness worked out at 0.0755.

C82A A111G A120C C169U U176C: the reverse-splicing fitness is 0.0138.

Regarding A111C A120G C169A U176A, the reverse-splicing fitness came out at 0.0221.

As to C82U A111G A120C C150G U176C, the reverse-splicing fitness came out at 0.00984.

Regarding C82U A111C A120C A145U C150G, the reverse-splicing fitness worked out at 0.00723.

As to C82G A111G C169A, the reverse-splicing fitness was determined as 0.00879.
